Drawing on patent US5760185, this text covers Minimum Effective Concentration for Neutralization for two molecules.

Experiment [1] has as its target feline herpes virus-1 (FHV-1) viral particle, K1 strain.
For experiment [2] the target is unchanged. The source holds these as a separate data set.

Like-named read-outs stand apart in the source and are kept apart here.

B1: anti-FHV-1 chimeric antibody FH2 (antibody, V domains shown)
VH: QVTLKESGPGILQPSQTLSLTCSFSGFSLSTSGMGAGWIRQPSGKGLEWLAHIWWDDVKRYNPALKSRLTISKDTSSSQVFLKIASVDTADTATYFCVRSQIYFDYDGAWFPFWGQGTLVTVSA
VL: DIVLTQSPATLSVTPGDSVSLSCRASQSISNNLHWYQQKSHESPRLLIKYASQSISGIPSRFSGSGSGTDFTLSINSVETEDFGMYFCQQSNSWPHTFGAGTKLELKS
In experiment [1], B1 yielded a Minimum Effective Concentration for Neutralization of 1.95 µg/mL.

B2: mouse monoclonal antibody JH2 (antibody, V domains shown)
VH: QVTLKESGPGILQPSQTLSLTCSFSGFSLSTSGMGAGWIRQPSGKGLEWLAHIWWDDVKRYNPALKSRLTISKDTSSSQVFLKIASVDTADTATYFCVRSQIYFDYDGAWFPFWGQGTLVTVSA
VL: DIVLTQSPATLSVTPGDSVSLSCRASQSISNNLHWYQQKSHESPRLLIKYASQSISGIPSRFSGSGSGTDFTLSINSVETEDFGMYFCQQSNSWPHTFGAGTKLELK
For B2, the Minimum Effective Concentration for Neutralization in experiment [2] is 0.39 µg/mL; in experiment [1], 1.25 µg/mL.
